A value given as a limit tells only on which side of the number the result lay.

One experiment has as its target HLA-A*01:01. Briefly: IEDB peptide-MHC binding, purified MHC/competitive/radioactivity; filed as Kd, often an IC50 or EC50 that approximates it; ≥ and ≤ were set here for values at or beyond the usual limits of such assays. The note with it: source organism: Clostridium botulinum.
As to DMIVDAIPY, the dissociation constant (Kd) (commonly the constant that tells how readily two partners part at equilibrium) is at least 50000 nM.
Still for that read-out and setting: with GMQNIYIKY the figure was 2470 nM.
Still for that read-out and setting: with ITYFKKIYY the figure was 2330 nM; with KSKSIFFEY, 7060 nM; with LHEYKQGDY, at least 50000 nM.
The same measure, in the same setting: with RNEFSNVEY the figure was at least 50000 nM.

Staying with this experiment, now noted: source organism: Clostridium perfringens.
As for LGDGVKDHY, the Kd came to 11600 nM.

Staying with this experiment, now noted: source organism: Hepacivirus hominis.
As to FTIFKIRMY, the Kd turned out to be 3500 nM.

The experiment is the same for the next values; noted with them: source organism: Hepatitis B virus adw/Okinawa/PODW282.
Turning to PLDKGIKPY, the Kd came out at 2210 nM.

Still in this experiment, the particulars now being: source organism: Hepatitis C virus (isolate Japanese).
In the case of PGDPPQPEY, the Kd is at least 50000 nM.

The experiment is the same for the next values; noted with them: source organism: Human immunodeficiency virus type 1 (NEW YORK-5 ISOLATE).
Regarding ETKLGKAGY, the equilibrium dissociation constant (Kd) is at least 42000 nM.
On the same count and under the same terms, the figure for ETPGIRYQY is 2150 nM.

Still in this experiment, the particulars now being: source organism: Human papillomavirus 16.
Regarding FEDPTRRPY, the dissociation constant Kd is at least 50000 nM.
Same read-out and setting: with VCDKCLKFY the figure was at least 50000 nM.

The experiment is the same for the next values; noted with them: source organism: Influenza A virus (A/Texas/1/1977(H3N2)).
Regarding AFDERRNKY, the equilibrium dissociation constant (Kd) is at least 50000 nM.

Staying with this experiment, now noted: source organism: Mycobacterium tuberculosis.
Regarding SSLGLPVSY, the Kd stood at 9660 nM.
VTPEQRPLY: the dissociation constant (Kd) turned out to be 2710 nM.

The experiment is the same for the next values; noted with them: source organism: Neisseria gonorrhoeae.
Consider DPEMADVTY, for which the dissociation constant Kd was at least 50000 nM.
In the case of EKEVVPDFY, the Kd is at least 50000 nM.
On the same count and under the same terms, the figure for FDEKNQDKY is at least 50000 nM; for GKDLYYKNY it is at least 50000 nM; for GTYDYWAGY it is 1180 nM.
Take IRDMTEKQY: the Kd was at least 50000 nM.
On the same count and under the same terms, with KSWQEWNIY the figure was 17900 nM; with KTQNGKKQY, at least 50000 nM.
Same read-out and setting: the figure for LSQDALTNY is 2060 nM.
Still for that read-out and setting: with QNDYDEDDY the figure was 14000 nM; with QRESTAMAY, at least 50000 nM.
Consider RPDLSLRSY, for which the Kd is at least 50000 nM.
Same read-out and setting: with RSYNLKLSY the figure was 6220 nM.
On the same count and under the same terms, the figure for TTRPGLAGY is at least 35000 nM.
On the same count and under the same terms, the figure for VREFPEDQY is at least 50000 nM; for YDEDDYSYY it is at least 50000 nM.

In the next experiment the target is HLA-A*01:01. The experiment can be described thus: IEDB peptide-MHC binding, purified MHC/competitive/radioactivity; ≥ and ≤ were set here for values at or beyond the usual limits of such assays. As to conditions: source organism: Clostridium botulinum.
Regarding CSNDKSLVY, the half-inhibitory concentration (IC50) (as a rule, the point on the concentration scale where inhibition reaches its midpoint) was found to be 115 nM.
Still for that read-out and setting: the figure for FLDQWWTEY is 1.1 nM; for FVEDPNGKY it is 677 nM.
On to IIEDQYNRY, for which the IC50 was 179 nM.
On the same count and under the same terms, with ISDESYRVY the figure was 183 nM; with LTYKYNQFY, 12 nM.
Same read-out and setting: with TSIPFLHEY the figure was 618 nM; with TSPYELSLY, 255 nM.

The same experiment, now with this note: source organism: Clostridium perfringens.
STTAGPNEY: the half-maximal inhibitory concentration (IC50) was 785 nM.

Still in this experiment, the particulars now being: source organism: Hepacivirus hominis.
Regarding LTPRCMVDY, the IC50 turned out to be 538 nM.
Turning to VQDCNCSIY, the IC50 came to 78 nM.

The experiment is the same for the next values; noted with them: source organism: Hepatitis B virus adw/Okinawa/PODW282.
For LTKQYLNLY, the 50% inhibitory concentration (IC50) stood at 84 nM.
In the case of PTTGRTSLY, the IC50 was 54 nM.

The same experiment, now with this note: source organism: Homo sapiens.
Turning to ETLEEITGY, the IC50 worked out at 984 nM.
GTQLFEDNY: the IC50 came to 237 nM.
As to TQDLVQEKY, the IC50 came to 20 nM.
On the same count and under the same terms, the figure for YTAVVPLVY is 1.5 nM.

The experiment is the same for the next values; noted with them: source organism: Mycobacterium tuberculosis.
With HTEFEGQVY, the concentration for half-maximal inhibition (IC50) is 6.8 nM.
On the same count and under the same terms, the figure for RSARASSRY is 622 nM; for VAEGDTVIY it is 840 nM.

The same experiment, now with this note: source organism: Neisseria gonorrhoeae.
Take ASADKPYSY: the IC50 worked out at 280 nM.
The same measure, in the same setting: the figure for GTATYLPPY is 120 nM; for HSAEALQKY it is 398 nM.
Regarding KAEVHTFYY, the half-inhibitory concentration (IC50) stood at 233 nM.
The same measure, in the same setting: with LSGNGHFHY the figure was 125 nM.
The same measure, in the same setting: with LTAGLDFAY the figure was 26 nM.
As to LTEIDIRDY, the IC50 is 65 nM.
The same measure, in the same setting: the figure for NTFVQANLY is 492 nM.

(Values after the Immune Epitope Database (IEDB).)
